Reference: article PMC6270119, “Application of Reductive ^13C-Methylation of Lysines to Enhance the Sensitivity of Conventional NMR Methods” (Molecules, 2013)

Experiments:
[1] = Dynamic light scattering particle size analysis; assay type: physicochemical; details: DLS, 0.25 mM (250 μM) FM-HVR in PBS, room temperature
Source text: This roughly corresponds to the monomeric form of peptide. However, upon introduction of farnesylation and methylation the hydrodynamic radius of the peptide increased to 8.15 ± 0.46 nm at a four times lower concentration as shown in Figure 2B. This hydrodynamic radius corresponded to a particle of 471.92 ± 63.75 kDa in size. Observation of higher order assemblies of FM-HVR allowed us to conclude that post-translational modifications in K-Ras can lead to aggregation through hydrophobic interactions.
For studying aggregation of peptides, dynamic light scattering experiments were performed on a DynaPro-801 molecular sizing instrument (Wyatt Technology Europe, Dernbach, Germany). The peptide samples were dialyzed against PBS. The sample volume of 250 μL was used for the experiments. […] Samples were centrifuged at 12000 rpm for 10 min before experiments. Analysis of the data was carried out using Dynamics software.

[2] = molecular target: reductively methylated calmodulin (UniProt P0DP23); assay: NMR titration; 1H-13C HSQC of 70 µM reductively methylated CaM with FM-HVR at 0:1, 1:1, 2:1 and 3:1 molar ratios (aggregated FM-HVR); 25 °C; 50 mM Tris-citrate pH 6.5, 50 mM NaCl, 5 mM MgCl2, 10 mM β-mercaptoethanol, 10 mM CaCl2
[3] = molecular target: fully post-translationally modified (farnesylated and methylated) hypervariable region peptide of K-Ras4B (human); assay: pyrene fluorescence (critical aggregation concentration); peptide at different concentrations with 2 µM pyrene in PBS; excitation scans 315-360 nm, emission 393 nm; ratio I334/I337 against the logarithm of the peptide concentration
[4] = molecular target: reductively methylated calmodulin (UniProt P0DP23); assay: NMR titration; 1H-13C HSQC of 1 µM reductively methylated CaM with 0, 0.5, 1 and 1.5 µM FM-HVR (peptide not aggregated); 25 °C; 50 mM Tris-citrate pH 6.5, 50 mM NaCl, 5 mM MgCl2, 10 mM β-mercaptoethanol, 10 mM CaCl2

| FM-HVR to CaM titration ratio at saturation (FM-HVR per CaM) [2] | critical aggregation concentration [3] | FM-HVR to CaM titration ratio at saturation (FM-HVR per CaM) [4] | Molecule | hydrodynamic radius [1] | particle mass corresponding to hydrodynamic radius [1] |
| --- | --- | --- | --- | --- | --- |
|  |  |  | COC(=O)[C@H](CSC/C=C(\C)CC/C=C(\C)CCC=C(C)C)NC(=O)C1CCC(CN2C(=O)CC(SC[C@H](NC(=O)[C@H](CCCCN)NC(=O)[C@H](CO)NC(=O)[C@H](CCCCN)NC(=O)[C@H](CCCCN)NC(=O)[C@H](CCCCN)NC(=O)[C@H](CCCCN)NC(=O)[C@H](CCCCN)NC(=O)[C@H](CCCCN)NC(=O)CNC(=O)[C@H](CC(=O)O)NC(=O)[C@H](CCCCN)NC(=O)[C@H](CO)NC(=O)[C@H](CCSC)NC(=O)[C@H](CCCCN)NC(=O)[C@H](CCC(=O)O)NC(=O)[C@@H](N)CCCCN)C(=O)O)C2=O)CC1 (some centres unmarked) [FM-HVR] | 8.15 ± 0.46 nm | 471.92 ± 63.75 kDa |
| 2 | > 10 µM | 1 | fully post-translationally modified (farnesylated and methylated) hypervariable region peptide of K-Ras4B |  |  |
